The chains are these.
B1: TOX high mobility group box family member 3, residues 256 to 323; numbered along this chain, O15405 (parent)
chain: QKPVSAYALFFRDTQAAIKGQNPNATFGEVSKIVASMWDSLGEEQKQVYKRKTEAAKKEYLKALAAYR

Among the data in the Human Domainome abundance scans (Beltran et al. 2025) are abundance fitness values, retold here.

± gives the uncertainty stated by the source.

In this data set the parent is B1. Description: abundance fitness (aPCA) (normalised: wild type 0, dead -1); higher = more abundant; growth selection in yeast, the domain comes from the species named. The note with it: Homo sapiens.
Consider QKPVSAYCLFFRDTQAAIKGQNPNATFGEVSKIVASMWDSLGEEQKQVYKRKTEAAKKEYLKALAAYR, for which the abundance fitness stood at 0.163 ± 0.097. In the case of QKPVSAYDLFFRDTQAAIKGQNPNATFGEVSKIVASMWDSLGEEQKQVYKRKTEAAKKEYLKALAAYR it was 0.039 ± 0.15; in that of QKPVSAYELFFRDTQAAIKGQNPNATFGEVSKIVASMWDSLGEEQKQVYKRKTEAAKKEYLKALAAYR, -0.376 ± 0.18. In the case of QKPVVAYALFFRDTQAAIKGQNPNATFGEVSKIVASMWDSLGEEQKQVYKRKTEAAKKEYLKALAAYR it was -0.693 ± 0.1; in that of QKPVRAYALFFRDTQAAIKGQNPNATFGEVSKIVASMWDSLGEEQKQVYKRKTEAAKKEYLKALAAYR, -0.348 ± 0.08; in that of QKPVQAYALFFRDTQAAIKGQNPNATFGEVSKIVASMWDSLGEEQKQVYKRKTEAAKKEYLKALAAYR, -0.527 ± 0.28. With QKPVWAYALFFRDTQAAIKGQNPNATFGEVSKIVASMWDSLGEEQKQVYKRKTEAAKKEYLKALAAYR, the abundance fitness was -0.491 ± 0.14. To QKPVSAVALFFRDTQAAIKGQNPNATFGEVSKIVASMWDSLGEEQKQVYKRKTEAAKKEYLKALAAYR belongs -0.651 ± 0.13; to QKPVSANALFFRDTQAAIKGQNPNATFGEVSKIVASMWDSLGEEQKQVYKRKTEAAKKEYLKALAAYR, 0.007 ± 0.16; to QKPVSATALFFRDTQAAIKGQNPNATFGEVSKIVASMWDSLGEEQKQVYKRKTEAAKKEYLKALAAYR, -0.679 ± 0.11. QKPVSAAALFFRDTQAAIKGQNPNATFGEVSKIVASMWDSLGEEQKQVYKRKTEAAKKEYLKALAAYR: the abundance fitness was -0.498 ± 0.14.

For the variant QKPVSAHALFFRDTQAAIKGQNPNATFGEVSKIVASMWDSLGEEQKQVYKRKTEAAKKEYLKALAAYR, the abundance fitness was -0.199 ± 0.14.

Regarding QKPVSARALFFRDTQAAIKGQNPNATFGEVSKIVASMWDSLGEEQKQVYKRKTEAAKKEYLKALAAYR, the abundance fitness is -0.244 ± 0.042. Turning to QKPVSASALFFRDTQAAIKGQNPNATFGEVSKIVASMWDSLGEEQKQVYKRKTEAAKKEYLKALAAYR, the abundance fitness is -0.404 ± 0.076. In the case of QKPVSAGALFFRDTQAAIKGQNPNATFGEVSKIVASMWDSLGEEQKQVYKRKTEAAKKEYLKALAAYR it was -0.33 ± 0.07; in that of QKPVSAPALFFRDTQAAIKGQNPNATFGEVSKIVASMWDSLGEEQKQVYKRKTEAAKKEYLKALAAYR, -0.452 ± 0.16; in that of QKPVSACALFFRDTQAAIKGQNPNATFGEVSKIVASMWDSLGEEQKQVYKRKTEAAKKEYLKALAAYR, -0.585 ± 0.19. Turning to QKPVSAKALFFRDTQAAIKGQNPNATFGEVSKIVASMWDSLGEEQKQVYKRKTEAAKKEYLKALAAYR, the abundance fitness is -0.033 ± 0.077. QKPVSAIALFFRDTQAAIKGQNPNATFGEVSKIVASMWDSLGEEQKQVYKRKTEAAKKEYLKALAAYR: the abundance fitness is -0.48 ± 0.14.

Take QKPVSAQALFFRDTQAAIKGQNPNATFGEVSKIVASMWDSLGEEQKQVYKRKTEAAKKEYLKALAAYR: the abundance fitness is -0.212 ± 0.12. To QKPVSAFALFFRDTQAAIKGQNPNATFGEVSKIVASMWDSLGEEQKQVYKRKTEAAKKEYLKALAAYR belongs -0.339 ± 0.15. With QKPVSAEALFFRDTQAAIKGQNPNATFGEVSKIVASMWDSLGEEQKQVYKRKTEAAKKEYLKALAAYR, the abundance fitness is -0.263 ± 0.11. To QKPVSALALFFRDTQAAIKGQNPNATFGEVSKIVASMWDSLGEEQKQVYKRKTEAAKKEYLKALAAYR belongs -0.547 ± 0.075. To QKPVSAWALFFRDTQAAIKGQNPNATFGEVSKIVASMWDSLGEEQKQVYKRKTEAAKKEYLKALAAYR belongs -0.462 ± 0.098. In the case of QKPVSWYALFFRDTQAAIKGQNPNATFGEVSKIVASMWDSLGEEQKQVYKRKTEAAKKEYLKALAAYR it was -0.848 ± 0.13; in that of QKPVSSYALFFRDTQAAIKGQNPNATFGEVSKIVASMWDSLGEEQKQVYKRKTEAAKKEYLKALAAYR, -0.075 ± 0.092. Turning to QKPVSMYALFFRDTQAAIKGQNPNATFGEVSKIVASMWDSLGEEQKQVYKRKTEAAKKEYLKALAAYR, the abundance fitness is -0.316 ± 0.1. As to QKPVSYYALFFRDTQAAIKGQNPNATFGEVSKIVASMWDSLGEEQKQVYKRKTEAAKKEYLKALAAYR, the abundance fitness is -0.34 ± 0.17. QKPVSRYALFFRDTQAAIKGQNPNATFGEVSKIVASMWDSLGEEQKQVYKRKTEAAKKEYLKALAAYR: the abundance fitness is -0.808 ± 0.1. To QKPVSGYALFFRDTQAAIKGQNPNATFGEVSKIVASMWDSLGEEQKQVYKRKTEAAKKEYLKALAAYR belongs -0.168 ± 0.079; to QKPVSPYALFFRDTQAAIKGQNPNATFGEVSKIVASMWDSLGEEQKQVYKRKTEAAKKEYLKALAAYR, 0.054 ± 0.059. Take QKPVSVYALFFRDTQAAIKGQNPNATFGEVSKIVASMWDSLGEEQKQVYKRKTEAAKKEYLKALAAYR: the abundance fitness was -0.601 ± 0.084. For QKPVSIYALFFRDTQAAIKGQNPNATFGEVSKIVASMWDSLGEEQKQVYKRKTEAAKKEYLKALAAYR, the abundance fitness was -0.833 ± 0.37. In the case of QKPVSEYALFFRDTQAAIKGQNPNATFGEVSKIVASMWDSLGEEQKQVYKRKTEAAKKEYLKALAAYR it was 0.156 ± 0.16; in that of QKPVSFYALFFRDTQAAIKGQNPNATFGEVSKIVASMWDSLGEEQKQVYKRKTEAAKKEYLKALAAYR, -0.661 ± 0.16. In the case of QKPVSCYALFFRDTQAAIKGQNPNATFGEVSKIVASMWDSLGEEQKQVYKRKTEAAKKEYLKALAAYR it was -0.372 ± 0.17. To QKPVSQYALFFRDTQAAIKGQNPNATFGEVSKIVASMWDSLGEEQKQVYKRKTEAAKKEYLKALAAYR belongs -0.185 ± 0.17. Turning to QKPVSLYALFFRDTQAAIKGQNPNATFGEVSKIVASMWDSLGEEQKQVYKRKTEAAKKEYLKALAAYR, the abundance fitness is -0.37 ± 0.086.

Consider QKPVSHYALFFRDTQAAIKGQNPNATFGEVSKIVASMWDSLGEEQKQVYKRKTEAAKKEYLKALAAYR, for which the abundance fitness is -0.597 ± 0.37. To QKPVSTYALFFRDTQAAIKGQNPNATFGEVSKIVASMWDSLGEEQKQVYKRKTEAAKKEYLKALAAYR belongs -0.6 ± 0.18.
